# Article PMC3258144 (Nucleic Acids Research, 2011)
# Residue numbers refer to the chain shown, from its start. Numbers in names are those of the source.
# B1: Dnmt3a-C K840E (domain or fragment, mouse, UniProt O88508 608-908, looked up)
# chain: NHDQEFDPPKVYPPVPAEKRKPIRVLSLFDGIATGLLVLKDLGIQVDRYIASEVCEDSITVGMVRHQGKIMYVGDVRSVTQKHIQEWGPFDLVIGGSPCNDLSIVNPARKGLYEGTGRLFFEFYRLLHDARPKEGDDRPFFWLFENVVAMGVSDKRDISRFLESNPVMIDAKEVSAAHRARYFWGNLPGMNRPLASTVNDKLELQECLEHGRIAKFSKVRTITTRSNSIKQGEDQHFPVFMNEKEDILWCTEMERVFGFPVHYTDVSNMSRLARQRLLGRSWSVPVIRHLFAPLKEYFACV
# B2: Dnmt3a-C E850H (domain or fragment, mouse, UniProt O88508 608-908, looked up)
# chain: B1 chain with E233K, E243H
# B3: Dnmt3a-C R827E (domain or fragment, mouse, UniProt O88508 608-908, looked up)
# chain: B1 chain with R220E, E233K
# Key:
# native gel or EMSA = biological target: the molecule itself; assay: native gel or EMSA
# [1] = biological target: the molecule itself; assay: fluorescence polarisation
Protein,binding result (native gel or EMSA),binding result [1]
B1,binds,–
B2,binds,–
B3,binds,binds
